The text below walks through data of US20240084023A1 (NGM BIOPHARMACEUTICALS, published 2024).

Holding throughout (experiment): flow cytometry on transfected 293XP cells
In general terms: A flow cytometer gives signals particle by particle.

For assay [1], the target named is T1, wild-type GCGR extracellular domain expressed in 293XP cells (human, UniProt P47871 26-136, limits assumed).
T1 construct: transfected into 293XP cells; also called WT GCGR
The method, then: (§1) To assist in gathering information on the GCGR epitope that the 6B5 binning group bound to, “alanine scanning mutagenesis” was undertaken. These alanine scanning mutagenesis platform is a technique used for mapping both linear and conformational antigen epitopes by evaluating the effects of point mutations across a target protein. Single residues in a target protein are replaced by alanine one at a time to construct a mutant library. Each variant is assayed for its ability to bind to an antibody of interest. […] Amino acids across the extracellular domain of GCGR were mutated to alanine and the anti-GCGR antibody Hz6B5 was tested for binding to the alanine mutants.
(§2) The wild-type GCGR extracellular domain and the alanine mutants were each transfected into 293XP cells and incubated for 24 hours. Antibody Hz6B5 was incubated with the transfected cells for 30 minutes at 4° C. After washing with PBS/1% BSA/0.1% azide, the cells were incubated with a labeled anti-mouse Fc antibody (Jackson Immunoresearch) for 30 minutes at 4° C. After washing with PBS/1% BSA/0.1% azide, the cells were analyzed using a flow cytometer BD (FACSCalibur instrument) and cytometric analytical software (FlowJo). A serum sample from a mouse immunized with human GCGR was used as positive control to confirm expression of the alanine mutants.

Assay [2] deals with T2, GCGR extracellular domain alanine mutant L32A (human, UniProt P47871 26-136, limits assumed).
T2 construct: expressed in 293XP cells
T2 chain: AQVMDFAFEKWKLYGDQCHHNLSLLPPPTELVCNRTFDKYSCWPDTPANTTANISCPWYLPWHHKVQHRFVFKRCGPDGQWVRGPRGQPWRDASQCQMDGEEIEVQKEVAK
The method, then: as §1, §2

Assay [3] has as its target T3, GCGR extracellular domain alanine mutant F33A (human, UniProt P47871 26-136, limits assumed).
T3 construct: expressed in 293XP cells
T3 chain: T2 chain with A7L, F8A
The method, then:
as §1, §2

In assay [4] the target is T4, GCGR extracellular domain alanine mutant L38A (human, UniProt P47871 26-136, limits assumed).
T4 construct: expressed in 293XP cells
T4 chain: T2 chain with A7L, L13A
How it is done:
as §1, §2

The target of assay [5] is T5, GCGR extracellular domain alanine mutant Y39A (human, UniProt P47871 26-136, limits assumed).
T5 construct: expressed in 293XP cells
T5 chain: T2 chain with A7L, Y14A
The method, then:
as §1, §2

In assay [6] the target is T6, GCGR extracellular domain alanine mutant H44A (human, UniProt P47871 26-136, limits assumed).
T6 construct: expressed in 293XP cells
T6 chain: T2 chain with A7L, H19A
How it is done:
as §1, §2

In assay [7] the target is T7, GCGR extracellular domain alanine mutant L50A (human, UniProt P47871 26-136, limits assumed).
T7 construct: expressed in 293XP cells
T7 chain: T2 chain with A7L, L25A
The method, then: as §1, §2

Assay [8] deals with T8, GCGR extracellular domain alanine mutant Y65A (human, UniProt P47871 26-136, limits assumed).
T8 construct: expressed in 293XP cells
T8 chain: T2 chain with A7L, Y40A
How it is done:
as §1, §2

In assay [9] the target is T9, GCGR extracellular domain alanine mutant R94A (human, UniProt P47871 26-136, limits assumed).
T9 construct: expressed in 293XP cells
T9 chain: T2 chain with A7L, R69A
How it is done:
as §1, §2

In assay [10] the target is T10, GCGR extracellular domain alanine mutant K98A (human, UniProt P47871 26-136, limits assumed).
T10 construct: expressed in 293XP cells
T10 chain: T2 chain with A7L, K73A
The method, then: as §1, §2

The target in assay [11] is T11, GCGR extracellular domain alanine mutant W106A (human, UniProt P47871 26-136, limits assumed).
T11 construct: expressed in 293XP cells
T11 chain: T2 chain with A7L, W81A
The method, then: as §1, §2

Assay [12] deals with T12, GCGR extracellular domain alanine mutant R108A (human, UniProt P47871 26-136, limits assumed).
T12 construct: expressed in 293XP cells
T12 chain: T2 chain with A7L, R83A
The method, then: as §1, §2

Assay [13] has as its target T13, GCGR extracellular domain alanine mutant R116A (human, UniProt P47871 26-136, limits assumed).
T13 construct: expressed in 293XP cells
T13 chain: T2 chain with A7L, R91A
The method, then: as §1, §2

Residue numbers refer to the chain shown, from its start.

B1: anti-GCGR antibody Hz6B5 (antibody, V domains shown)
VH: QVQLVQSGAEVKKPGSSVKVSCKASGFTFTNHWLGWVRQAPGQGLEWIGDIYPGGYYINYNEKFKGRVTITADESTSTAYMELSSLRSEDTAVYYCARHTNYGSDYWGQGTTVTVSS
VL: DVVMTQSPLSLPVTLGQPASISCRSSQSIVDSYGNTFLEWYQQRPGQSPRLLIYKVSNRLSGVPDRFSGSGSGTDFTLKISRVEAEDVGVYYCFQGSHVPWTFGQGTKLEIK
notes: Humanized 6B5
In the case of B1, the “% positive cells” value was determined as 87.8% in assay [1]; 76.9% in assay [2]; 71.8% in [3]; 3.3% in [4]; 65.8% in assay [5]; 82.2% in assay [6]. In addition, the “% positive cells” value stood at 86.6% in [7]; 64.8% in assay [8]; 0% in assay [9]; 82.5% in [10]; 60.8% in assay [11]; 87% in [12]. In [13], the “% positive cells” value came out at 85.9%.
